Laboratory results reported in PMC6685440.

Molecular target: Heavy meromyosin (HMM)
Test: far-Western, overlay or dot blot

| Binder | fold binding against wild type [fold] |
| --- | --- |
| GST-tagged NH2-terminal region of slow myosin binding protein-C (Pro/Ala-rich motif, Ig C1 and M-motif), Y247H (domain or fragment) MPEPTKKEENEVPAPAPPPEEPSKEKEAGTTPAKDEEEVSPPSALPPGLGSRALERKDSDWTLVETPPGEEQAKQNANSQLSILFIEKPQGGTVKVGEDITFIAKVKAEDLLRKPTIKWFKGKWMDLASKAGKHLQLKETFERHSRVYTFEMQIIKAKDNFAGNYRCEVTYKDKFDSCSFDLEVHESTGTTPNIDIRSAFKRSGEGQEDAGELDFSGLLKRREVKQQEEEPQVDVWELLKNAKPSEHEKIAFQYGITDLRGMLKRLKRMRREEKKSAAFAKILD | 2 |
| GST-tagged NH2-terminal region of slow myosin binding protein-C (Pro/Ala-rich motif, Ig C1 and M-motif), E248K (domain or fragment) MPEPTKKEENEVPAPAPPPEEPSKEKEAGTTPAKDEEEVSPPSALPPGLGSRALERKDSDWTLVETPPGEEQAKQNANSQLSILFIEKPQGGTVKVGEDITFIAKVKAEDLLRKPTIKWFKGKWMDLASKAGKHLQLKETFERHSRVYTFEMQIIKAKDNFAGNYRCEVTYKDKFDSCSFDLEVHESTGTTPNIDIRSAFKRSGEGQEDAGELDFSGLLKRREVKQQEEEPQVDVWELLKNAKPSEYKKIAFQYGITDLRGMLKRLKRMRREEKKSAAFAKILD | 3.5 |
